# B1: mRNA-splicing (parent)
# chain: AGUUGCUGCUGGGAGCUCCAGCACAGUGAAAUGGACAGAAGGGCAGAGCAA
# Variants of: B1
# Experiment: exon inclusion enrichment index; higher = more inclusion; WT1 exon 5 minigene, HEK293
row,Variant,exon inclusion enrichment index
1,G5C C6U G8C C9U U10C U17C C18G,2.39
2,G5A C6U U7A G8U U10A,0.0329
3,G5A C6G U7G C9A C44G A45G,0.00929
4,C6A U7C C9A U10C A20C G21U,2.72
5,G5A U7C G8A U10C G42U G43U,3.03
6,C6A U7A C9A U10A A31C U32C,1.71
7,G5C C6U G8C C9U U10C C22G A23C,0.747
8,G5A U7C G8A U10C C44A A45G,3.75
9,G5A C6U U7A G8U C9U U10C,0.453
10,G5C C6A U7C G8A U10A G13A A14C,0.899
11,G5U G8U C9U U27C G28C,0.257
12,G5A C6U U7A G8U C9A G46C,0.0876
13,A45G G46C,0.331
14,G5A C6U U7A G8U C9A G12A G13A,0.027
15,U3C U4G G5C C6A U7C G8A U10A,0.239
16,G5C C6G U7C G8A C9A U10C,3.14
17,U4A G5U,0.0569
18,G5U G8U C9U G15U,0.107
19,C6A U7A C9A U10A C18U C19A,0.046
20,G5C C6G U7C U10C A23U C24G,3.71
21,G5C C6A U7C G8A U10A G46U A47C,0.501

row,Variant,exon inclusion enrichment index
1,G5C C6A U7C G8A U10A U32A G33A,0.0122
2,G5C C6G U7C U10C C36U,1.33
3,G5U G8U C9U A45C G46A,0.056
4,G2C U3A G5U G8U C9U,0.19
5,G5A C6U U7A G8U C9A G12C,0.0374
6,C22A A23G,1.76
7,G5C C6U G8C C9U G11C,2.09
8,G5C C6A U7C G8A U10A G21U,0.0631
9,G5C C6U G8C C9U U10C A23U C24A,0.79
10,G5U G8U C9U U27A G28C,0.109
11,G5U G8U C9U U27A G28U,0.0328
12,G5U G8U C9U U17A C18U,0.0627
13,G5U G8U C9U U17A C18G,0.0888
14,G5A C6U U7A G8U C9A U17A C18G,0.0258
15,G5A U7C G8A U10C A35G C36G,0.306
16,G5U G8U C9U G15C C16A,0.0947
17,G5C C6U G8C C9U U10C G34C A35U,0.385
18,C6A U7C C9A U10C U27A G28U,2.04
19,C6A U7A C9A U10A U32A,0.442
20,G5C C6U G8C C9U U10C A45U G46A,1.39
21,G5A C6G U7G C9A C16U U17G,0.0132

row,Variant,exon inclusion enrichment index
1,G5C C6A U7C G8A U10A U27A,0.151
2,G5C C6A U7C G8C C9U U10A,0.107
3,U4C G5A C6G U7G C9A,0.0522
4,G5C C6A U7C G8A U10A G15A C16A,0.00997
5,G5C C6U G8U C9A U10C,0.494
6,C6A U7C C9A U10C G11U G12U,1.57
7,C6A U7C C9A U10C G11U G12A,1.25
8,G5A C6G U7G C9A G34C A35C,0.00219
9,U3A U4A G5A C6G U7G C9A,0.0117
10,G5A C6G U7G C9A G41C G42C,0.0196
11,C6A U7A C9A U10A A20G G21U,0.779
12,G5A C6U U7A G8U C9A G38C A39G,0.115
13,G5A C6G U7G C9A U27G,0.000925
14,C6A U7A C9A U10A U27C G28A,0.886
15,C6A U7A C9A U10A G42A,1.81
16,G5A U7C G8A U10C G13C,1.1
17,G5U G8U C9U U17G C18A,0.124
18,G5C C6G U7C U10C U32C G33A,2.09
19,U4G G5C G8U C9U,0.642
20,G5C C6A U7C G8A U10A G38C,0.0648
21,G5C C6A U7C G8A U10A G38U,0.0342

row,Variant,exon inclusion enrichment index
1,G5U G8U C9U G26U U27C,0.729
2,G5C C6A U7C G8A U10A,0.12
3,G5U G8U C9U C44G A45U,0.0543
4,G5C C6U U7C G8A U10A,0.137
5,G5C C6A U7C G8A C9U U10A,0.0185
6,C6A U7A C9A U10A G12U G13A,0.633
7,G5C C6G U7C U10C U17C C18A,3.59
8,G5U G8U C9U C19U A20U,0.0205
9,G5C C6U G8C C9U U10C G43C C44U,1.6
10,G5U G8U C9U G26A U27A,0.24
11,G5C C6G U7C U10C A40G G41C,3.83
12,G5C C6A U7C G8A U10A A47C G48C,0.224
13,C6A U7A C9A U10A U17G C18U,0.46
14,G5C U7C G8C C9U U10C,0.0413
15,G2A U3C C6A U7C C9A U10C,3.17
16,C6A U7C C9A U10C C24G,3.61
17,G5C C6A U7C G8A U10A U32C,0.292
18,G5C C6A U7C G8A U10A G28C A29G,0.241
19,G5A C6U U7A G8U C9A C44G A45U,0.0272
20,U7A G8U,1.83

# Reference: the RNAGym collection of RNA variant scans (doi:10.1101/gr.219683.116)
